What was measured:
[1] = target: Fc-tagged human IL-2 receptor subunit alpha, extracellular domain (hIL-2 Ra-Fc) (human) (UniProt P01589)
[2] = target: Fc-tagged human IL-2 receptor beta subunit extracellular domain (hIL-2 Rb-Fc) (human) (UniProt P14784)
[3] = target: Fc-tagged human IL-2 receptor alpha subunit extracellular domain (hIL-2 Ra-Fc) (human) (UniProt P01589)

Sequence of UniProt P14784 (P14784 27-240): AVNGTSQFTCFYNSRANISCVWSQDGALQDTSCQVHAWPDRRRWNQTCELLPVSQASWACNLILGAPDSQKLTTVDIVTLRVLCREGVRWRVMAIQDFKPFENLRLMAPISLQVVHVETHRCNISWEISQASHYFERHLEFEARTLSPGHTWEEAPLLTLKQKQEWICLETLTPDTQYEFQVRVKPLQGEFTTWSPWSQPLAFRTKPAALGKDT

IL-2 P65 AzK (replacement of proline 65 with AzK, without PEG attachment) (from UniProt P60568 21-153) (ligand)
potency (EC50) of pSTAT5 induction in Treg cells of human PBMC, PEG size study [1]: 5450 pg/mL

IL-2 with E62 replaced with AzK, pegylated with 10 kDa mPEG (from UniProt P60568 21-153) (ligand)
Supplementary Table 1: βγ EC50 (nM), DiscoverX PathHunter IL-2 receptor βγ assay; row E62 [2]: 3 nM

IL-2 with E62 replaced with AzK, pegylated with 30 kDa mPEG (from UniProt P60568 21-153) (ligand)
Supplementary Table 1: αβγ EC50 (nM), DiscoverX PathHunter IL-2 receptor αβγ assay; row E62* [3]: 2.84 nM
Supplementary Table 1: βγ EC50 (nM), DiscoverX PathHunter IL-2 receptor βγ assay; row E62* [2]: 7.46 nM

IL-2 with E68 replaced with AzK, pegylated with 30 kDa mPEG (from UniProt P60568 21-153) (ligand)
Supplementary Table 1: αβγ EC50 (nM), DiscoverX PathHunter IL-2 receptor αβγ assay; row E68* [3]: 0.09 nM
Supplementary Table 1: βγ EC50 (nM), DiscoverX PathHunter IL-2 receptor βγ assay; row E68* [2]: 7.7 nM

IL-2 with F42 replaced with AzK, pegylated with 10 kDa mPEG (from UniProt P60568 21-153) (ligand)
Supplementary Table 1: αβγ EC50 (nM), DiscoverX PathHunter IL-2 receptor αβγ assay; row F42 [3]: 0.52 nM
Supplementary Table 1: βγ EC50 (nM), DiscoverX PathHunter IL-2 receptor βγ assay; row F42 [2]: 6.09 nM

IL-2 with K35 replaced with AzK, pegylated with 10 kDa mPEG (from UniProt P60568 21-153) (ligand)
Supplementary Table 1: βγ EC50 (nM), DiscoverX PathHunter IL-2 receptor βγ assay; row K35 [2]: 6.75 nM

IL-2 with K43 replaced with AzK, pegylated with 10 kDa mPEG (from UniProt P60568 21-153) (ligand)
Supplementary Table 1: αβγ EC50 (nM), DiscoverX PathHunter IL-2 receptor αβγ assay; row K43 [3]: 0.13 nM
Supplementary Table 1: βγ EC50 (nM), DiscoverX PathHunter IL-2 receptor βγ assay; row K43 [2]: 9.84 nM

IL-2 with R38 replaced with AzK, pegylated with 10 kDa mPEG (from UniProt P60568 21-153) (ligand)
Supplementary Table 1: αβγ EC50 (nM), DiscoverX PathHunter IL-2 receptor αβγ assay; row R38 [3]: 0.17 nM
Supplementary Table 1: βγ EC50 (nM), DiscoverX PathHunter IL-2 receptor βγ assay; row R38 [2]: 4.16 nM

IL-2 with T41 replaced with AzK, pegylated with 10 kDa mPEG (from UniProt P60568 21-153) (ligand)
Supplementary Table 1: αβγ EC50 (nM), DiscoverX PathHunter IL-2 receptor αβγ assay; row T41 [3]: 0.05 nM
Supplementary Table 1: βγ EC50 (nM), DiscoverX PathHunter IL-2 receptor βγ assay; row T41 [2]: 6.37 nM

IL-2 with V69 replaced with AzK, pegylated with 30 kDa mPEG (from UniProt P60568 21-153) (ligand)
Supplementary Table 1: αβγ EC50 (nM), DiscoverX PathHunter IL-2 receptor αβγ assay; row V69* [3]: 0.08 nM
Supplementary Table 1: βγ EC50 (nM), DiscoverX PathHunter IL-2 receptor βγ assay; row V69* [2]: 9.99 nM

IL-2 with Y45 replaced with AzK, pegylated with 10 kDa mPEG (from UniProt P60568 21-153) (ligand)
Supplementary Table 1: αβγ EC50 (nM), DiscoverX PathHunter IL-2 receptor αβγ assay; row Y45 [3]: 0.11 nM
Supplementary Table 1: βγ EC50 (nM), DiscoverX PathHunter IL-2 receptor βγ assay; row Y45 [2]: 9.06 nM

— publication PMC8352909
